This passage reports p-FoxO1 expression (Western blot, normalised to total FoxO1) in C2C12 myotubes; myostatin 6 ug/mL with 300 results from US20090324590A1.

In this experiment the target is recombinant wild type myostatin. In words: cell-based or functional assay.

On to “myostatin antagonist 300 (amino acids 267-300 of bovine myostatin with N-terminal and C-terminal tags) (peptide)”, for which the p-FoxO1 expression (Western blot, normalised to total FoxO1) in C2C12 myotubes; myostatin 6 ug/mL with 300 at 30, 60, 90 or 120 ug/mL for 24 hours; concentration of 300 giving maximal rescue was found to be 90 µg/mL.
